Test results as given in the supplement of paper PMC9170038.

System: MS2 coat protein
Test: apparent KD of MS2 coat protein; designed switch direction (-1 OFF switch, 1 ON switch): -1; higher = weaker reporter binding
Procedure, shortened: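 The buffer was Tris-HCl pH 7.5 with KCl, MgCl2, BSA, DTT, tRNA and Tween-20. In it, SNAP-549-labelled MS2 coat protein was titrated in doubling steps from 0.7 or 1.5 nM to 3 µM over chip-bound RNA switches transcribed by stalled E. coli RNA polymerase on Illumina chips. Apparent KD is the per-design median over clusters of curve fits to normalised fluorescence.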

[1] = input ligand: microRNA oligo, concentration not stated
[2] = Eterna round: R95, input ligand: FMN 200 uM
[3] = Eterna round: R95, input ligand: microRNA oligo, concentration not stated
[4] = Eterna round: R95, input ligand: none

In the case of “AACUCACAUGAGGAUCACCCAUGUGAGGAUAUGGUUUCGCUGGCCGUAGCCAGUGGAACCAGAAGGCGCGUGAU [Mat - Exclusion 1 - JL Mod - D26] (Eterna round: R97, puzzle: Exclusion 1)”, the “apparent KD of MS2 coat protein” value (input ligand: FMN 200 uM) is reported as 52.4 nM and the “apparent KD of MS2 coat protein” value (input ligand: none) is reported as 58.9 nM.
For “AUUAUAUAGACAGGAUAUUGAUUAUUAUUUUAACAUGAGGAUCACCCAUGUAACCUUAUGUGUAACAAGAAGGGUCAUUUAUUA [Title] (Eterna round: R96, puzzle: Exclusion NG 2)”, the “apparent KD of MS2 coat protein” value (input ligand: FMN 200 uM) was 188 nM, the “apparent KD of MS2 coat protein” value [1] was 99.6 nM and the “apparent KD of MS2 coat protein” value (input ligand: none) was 106 nM.
With “ACCUACCAGCUAGGAUAUGCAGUACAGUAAAAUGUAGAAGGAGCACGAUCCAGACAUGAGGAUCACCCAUGUGGGCGGUAGGCA [Errage] (Eterna round: R96, puzzle: Exclusion NG 1)” the “apparent KD of MS2 coat protein” value (input ligand: FMN 200 uM) was 14.4 nM, the “apparent KD of MS2 coat protein” value [1] was 14 nM and the “apparent KD of MS2 coat protein” value (input ligand: none) was 16.9 nM.
In the case of “GCCAGAGCAGGAUAUUGAAUAAUUCACAUGAGGAUCACCCAUGUCCAGCGAAAGCUGGAACGAGAAGGGCUCUGGC [Fiskers Ex 5 - 5] (puzzle: Exclusion 5)”, the “apparent KD of MS2 coat protein” value [2] is reported as 12.5 nM, the “apparent KD of MS2 coat protein” value [3] is reported as 11.7 nM and the “apparent KD of MS2 coat protein” value [4] is reported as 11.1 nM.
For “AACCGUGCGGAGGAUAUUGAUAUCCCAGUCUAUCAAGAAGGCUGCACAUGAGGAUCACCCAUGUGAUCCGUGCU [Riri] (puzzle: Exclusion 6)”, the “apparent KD of MS2 coat protein” value [3] was 23.6 nM.
“GUCUUCAUGACAUGAGGAUCACCCAUGUGUUAUAUGUUAACUAAGGAUAUAUUUUUAAUGUUGAGAUAGAAGGUAGUUUCGGUC [JR_ExcNG3_Sub091] (Eterna round: R96, puzzle: Exclusion NG 3)” was tested, and the “apparent KD of MS2 coat protein” value (input ligand: FMN 200 uM) was 120 nM, the “apparent KD of MS2 coat protein” value [1] was 95.8 nM and the “apparent KD of MS2 coat protein” value (input ligand: none) was 131 nM.
“GGGCUGCGACGCAGCCAAACAAAACAUGAGGAUCACCCAUGUCAGGAUAUACCGAUGCAGCAUCUGUAGAAGGGACAGAUCCAA [Onlaorre] (Eterna round: R96, puzzle: Exclusion NG 3)” was tested, and the “apparent KD of MS2 coat protein” value (input ligand: FMN 200 uM) was 145 nM, the “apparent KD of MS2 coat protein” value [1] was 63.5 nM and the “apparent KD of MS2 coat protein” value (input ligand: none) was 73.3 nM.
With “CAGUACUGAGGAUAUACAUGAGGAUCACCCAUGUGUUCCAGCUAGGAUACUAGCAAGUGUAGAAGGCAGUACUG [Mat - Exclusion 3 - Eli Mod - D7] (Eterna round: R97, puzzle: Exclusion 3)” the “apparent KD of MS2 coat protein” value (input ligand: FMN 200 uM) was 188 nM and the “apparent KD of MS2 coat protein” value (input ligand: none) was 396 nM.
With “AGAUCCUGAGUCAGGAUAUAGAGACGGUAGUCGGGCUAGAAGGGACAUGAGGAUCACCCAUGUGGGUUCGGGCC [Zarareso] (puzzle: Brourd's mod of Exclusion 4)” the “apparent KD of MS2 coat protein” value [3] was 12.8 nM.
“AUUUUGUCAGGAUAUGAGUAGUAGGACGAAAGUGCUACUACUUAGAAGGGACAUGAGGAUCACCCAUGUCUUCC [Bring Us a Shrubbery-05] (puzzle: Exclusion 4)” was tested, and the “apparent KD of MS2 coat protein” value [3] was 13.5 nM.
With “ACAUGAGGAUCACCCAUGUAAUGAAGGGUACUAUACUAAACGUAGGAUAUCGAUGUAAGAUUGAACGAGAAGGACGAUUGCCUU [JR_ExcNG3_Sub050] (Eterna round: R96, puzzle: Exclusion NG 3)” the “apparent KD of MS2 coat protein” value (input ligand: FMN 200 uM) was 55.9 nM, the “apparent KD of MS2 coat protein” value [1] was 42 nM and the “apparent KD of MS2 coat protein” value (input ligand: none) was 72.8 nM.
“CCCAGUUAGAGAGGAUAUCUUACAUGAGGAUCACCCAUGUAAUAAAUGAGGAUUUCGGGUGUCUAAGAGAAGGCUCGGAUAGGC [Ostracism 29 - Jieux - Exclusion NG 2] (Eterna round: R96, puzzle: Exclusion NG 2)” was tested, and the “apparent KD of MS2 coat protein” value (input ligand: FMN 200 uM) was 37.9 nM, the “apparent KD of MS2 coat protein” value [1] was 15.3 nM and the “apparent KD of MS2 coat protein” value (input ligand: none) was 26.4 nM.
In the case of “GGAUAGUGAGGAUAUCGAUGUUAGGAGGAGUAGAUAGGAGGCGAGAAGGCACAUGAGGAUCACCCAUGUAUGGA [JR_Exclu4_Sub068] (puzzle: Exclusion 4)”, the “apparent KD of MS2 coat protein” value [3] is reported as 47.8 nM.
In the case of “CUGAGUAGUCAGGAUAUGCUGUACAAAAGUACAGCAGAAGGGACUACAUGAGGAUCACCCAUGUUUACUUCAUG [)mei Ex6 B22] (Eterna round: R97, puzzle: Exclusion 6)”, the “apparent KD of MS2 coat protein” value (input ligand: FMN 200 uM) is reported as 1260 nM and the “apparent KD of MS2 coat protein” value (input ligand: none) is reported as 821 nM.
For “GGAGGAAAGAUAGGAUAUUAGAGGAAGGUGGUGAUAGAGACAUGAGGAUCACCCAUGUAAGGAGGUAAGAAGGGUCGAGGAGGA [AK ExNG2-V2-6] (Eterna round: R96, puzzle: Exclusion NG 2)”, the “apparent KD of MS2 coat protein” value (input ligand: FMN 200 uM) was 231 nM, the “apparent KD of MS2 coat protein” value [1] was 66.5 nM and the “apparent KD of MS2 coat protein” value (input ligand: none) was 243 nM.
In the case of “GGGAAGUGAGGAUAUAUGAGAGAGGCUGGACCGGAUGAGAAGUAGAAGGCACAUGAGGAUCACCCAUGUAGGGA [JR_Exclu4_Sub026] (puzzle: Exclusion 4)”, the “apparent KD of MS2 coat protein” value [2] is reported as 130 nM, the “apparent KD of MS2 coat protein” value [3] is reported as 152 nM and the “apparent KD of MS2 coat protein” value [4] is reported as 209 nM.
For “GAUUAUGCGAGCUUUAGGGACAUGAGGAUCACCCAUGUUCGUCUUAUUGAUCUAGAUGCACUAACAUACCUAAAUCU [JMF 25] (puzzle: Sensor v3, turn-off variant 1)”, the “apparent KD of MS2 coat protein” value [2] was 19.7 nM, the “apparent KD of MS2 coat protein” value [3] was 25.1 nM and the “apparent KD of MS2 coat protein” value [4] was 20.1 nM.
With “GAAAAGGUAGGAUAUACGAGAAAAAAGGGUAGAAAAAAAACACAUGAGGAUCACCCAUGUAGAAGGACCAAAAG [salish99_ex2_r3_029] (puzzle: Exclusion 2)” the “apparent KD of MS2 coat protein” value [2] was 35.5 nM, the “apparent KD of MS2 coat protein” value [3] was 23.1 nM and the “apparent KD of MS2 coat protein” value [4] was 21.3 nM.
With “AGCCAUCGUGUGAGGAUAUCGAUAAGUUCGAGUUUCGAGAAGGCACAUGAGGAUCACCCAUGUCGUGAAAGAAA [BmEX4 A.28] (Eterna round: R97, puzzle: Brourd's mod of Exclusion 4)” the “apparent KD of MS2 coat protein” value (input ligand: FMN 200 uM) was 75.8 nM and the “apparent KD of MS2 coat protein” value (input ligand: none) was 244 nM.
In the case of “ACAUGAGGAUCACCCAUGUGACAAUAAUGGCUGAUACAGAGACAGGAUAUAGGUGCAUAUCUAACCUAGAAGGGUCAUGACUGG [Deportation 72 - Jieux - Exclusion NG 3] (Eterna round: R96, puzzle: Exclusion NG 3)”, the “apparent KD of MS2 coat protein” value (input ligand: FMN 200 uM) is reported as 29.1 nM, the “apparent KD of MS2 coat protein” value [1] is reported as 30.6 nM and the “apparent KD of MS2 coat protein” value (input ligand: none) is reported as 36.6 nM.
“GUGUACGUAGGAUAUACAUGAGGAUCACCCAUGUGAAUAAGAUAGAAUAAGAUAAAGUGUAGAAGGACGAGUGU [Excluse me!!! 6 - Jieux - Exclusion 3] (puzzle: Exclusion 3)” was tested, and the “apparent KD of MS2 coat protein” value [3] was 30.4 nM.
“AGUACUAACACGUAAGUGUUAGUACAAUAAGCUUGUGUUACAUGAGGAUCACCCAUGUCCUCAUAAGCUCGUCUUAU [Mat - Sensor v3 - Turn-off var 2 - D60] (puzzle: Sensor v3, turn-off variant 2)” was tested, and the “apparent KD of MS2 coat protein” value [2] was 134 nM, the “apparent KD of MS2 coat protein” value [3] was 77.6 nM and the “apparent KD of MS2 coat protein” value [4] was 150 nM.
For “UCGCUCCGUGUAGGAUAUCGCCGUACCACUCGGCGAGAAGGACAUGAGGAUCACCCAUGUAUGUUAUUAUCACGUGUGGCGCGC [Design 52] (Eterna round: R96, puzzle: Exclusion NG 1)”, the “apparent KD of MS2 coat protein” value (input ligand: FMN 200 uM) was 33.5 nM, the “apparent KD of MS2 coat protein” value [1] was 19 nM and the “apparent KD of MS2 coat protein” value (input ligand: none) was 18.7 nM.
